Patent US20210230570
Residue numbers refer to the chain shown, from its start. Names may count otherwise.

B1: FIXa-R338E/R403E/E410N (protein)
chain 1: YNSGKLEEFVQGNLERECMEEKCSFEEAREVFENTERTTEFWKQYVDGDQCESNPCLNGGSCKDDINSYECWCPFGFEGKNCELDVTCNIKNGRCEQFCKNSADNKVVCSCTEGYRLAENQKSCEPAVPFPCGRVSVSQTSKLTR
chain 2: VVGGEDAKPGQFPWQVVLNGKVDAFCGGSIVNEKWIVTAAHCVETGVKITVVAGEHNIEETEHTEQKRNVIRIIPHHNYNAAINKYNHDIALLELDEPLVLNSYVTPICIADKEYTNIFLKFGSGYVSGWGRVFHKGRSALVLQYLRVPLVDRATCLESTKFTIYNNMFCAGFHEGGRDSCQGDSGGPHVTEVEGTSFLTGIISWGEECAMKGKYGIYTKVSEYVNWIKNKTKLT
B2: FIXa-R318Y/R338E/R403E (protein)
chain 1: B1 chain 1
chain 2: B1 chain 2 with R138Y, N230E
B3: FIXa-D203N/F205T/R318Y (protein)
chain 1: B1 chain 1
chain 2: B1 chain 2 with D23N, F25T, R138Y, E158R, E223R, N230E
B4: FIXa-K228N/R318Y/E410N (protein)
chain 1: B1 chain 1
chain 2: B1 chain 2 with K48N, R138Y, E158R, E223R
B5: FIXa-D203N/F205T/R338A (protein)
chain 1: B1 chain 1
chain 2: B1 chain 2 with D23N, F25T, E158A, E223R, N230E
B6: FIXa-D203N/F205T/E410N (protein)
chain 1: B1 chain 1
chain 2: B1 chain 2 with D23N, F25T, E158R, E223R
B7: FIXa-Y155F/R318Y/R338E/E410N (protein)
chain 1: B1 chain 1
chain 2: B1 chain 2 with R138Y, E223R
B8: FIXa-K228N/R338E/R403E (protein)
chain 1: B1 chain 1
chain 2: B1 chain 2 with K48N, N230E
B9: FIXa-D203N/F205T/R338E/R403E (protein)
chain 1: B1 chain 1
chain 2: B1 chain 2 with D23N, F25T, N230E
B10: FIXa-D203N/F205T/K228N (protein)
chain 1: B1 chain 1
chain 2: B1 chain 2 with D23N, F25T, K48N, E158R, E223R, N230E
B11: FIXa-D203N/F205T/R338E (protein)
chain 1: B1 chain 1
chain 2: B1 chain 2 with D23N, F25T, E223R, N230E
B12: FIXa-R318Y/R403E/E410N (protein)
chain 1: B1 chain 1
chain 2: B1 chain 2 with R138Y, E158R
B13: FIXa-D104N/K106S/R318Y/R338E/E410N (protein)
chain 1: B1 chain 1 with D104N, K106S
chain 2: B1 chain 2 with R138Y, E223R
B14: FIXa-R318Y/R338E/T412A (protein)
chain 1: B1 chain 1
chain 2: B1 chain 2 with R138Y, E223R, N230E, T232A
B15: FIXa-D203N/F205T/R318Y/E410N (protein)
chain 1: B1 chain 1
chain 2: B1 chain 2 with D23N, F25T, R138Y, E158R, E223R
B16: FIXa-D104N/K106S/R318Y/R338E/R403E/E410N (protein)
chain 1: B1 chain 1 with D104N, K106S
chain 2: B1 chain 2 with R138Y
B17: FIXa-Y155F/N260S/R318Y/R338E/R403E/E410N (protein)
chain 1: B1 chain 1
chain 2: B1 chain 2 with N80S, R138Y
B18: FIXa-Y155F/R318Y/R338E/R403E/E410N (protein)
chain 1: B1 chain 1
chain 2: B1 chain 2 with R138Y
B19: FIXa-D104N/K106S/Y155F/R318Y/R338E/R403E/E410N (protein)
chain 1: B1 chain 1 with D104N, K106S
chain 2: B1 chain 2 with R138Y
B20: FIXa-A103N/N105S/Y155F/R318Y/R338E/R403E/E410N (protein)
chain 1: B1 chain 1 with A103N, N105S
chain 2: B1 chain 2 with R138Y
B21: FIXa-R318Y/R338E/E410N/T412V (protein)
chain 1: B1 chain 1
chain 2: B1 chain 2 with R138Y, E223R, T232V
B22: FIXa-D104N/K106S/N260S/R318Y/R338E/R403E/E410N (protein)
chain 1: B1 chain 1 with D104N, K106S
chain 2: B1 chain 2 with N80S, R138Y
B23: FIXa-A103N/N105S/R318Y/R338E/R403E/E410N (protein)
chain 1: B1 chain 1 with A103N, N105S
chain 2: B1 chain 2 with R138Y
B24: FIXa-N260S/R318Y/R338E/R403E/E410N (protein)
chain 1: B1 chain 1
chain 2: B1 chain 2 with N80S, R138Y
B25: FIXa-Y155F/K228N/K247N/N249S (protein)
chain 1: B1 chain 1
chain 2: B1 chain 2 with K48N, K67N, N69S, E158R, E223R, N230E
B26: FIXa-R318Y/R338E/R403E/T412A (protein)
chain 1: B1 chain 1
chain 2: B1 chain 2 with R138Y, N230E, T232A
B27: FIXa-R318Y/R338E/E410S (protein)
chain 1: B1 chain 1
chain 2: B1 chain 2 with R138Y, E223R, N230S
B28: FIXa-K228N/R318Y/R338E/R403E/E410N (protein)
chain 1: B1 chain 1
chain 2: B1 chain 2 with K48N, R138Y
B29: FIXa-D104N/K106S/Y155F/K228N/K247N/N249S (protein)
chain 1: B1 chain 1 with D104N, K106S
chain 2: B1 chain 2 with K48N, K67N, N69S, E158R, E223R, N230E
B30: FIXa-D104N/K106S/K228N/K247N/N249S (protein)
chain 1: B1 chain 1 with D104N, K106S
chain 2: B1 chain 2 with K48N, K67N, N69S, E158R, E223R, N230E
B31: FIXa-D104N/K106S/I251S/R318Y/R338E/E410N (protein)
chain 1: B1 chain 1 with D104N, K106S
chain 2: B1 chain 2 with I71S, R138Y, E223R

Each protein was assayed against antithrombin III (plasma purified human AT-III), in complex with unfractionated heparin.

Protein	K0.5	K0.5-mut/K0.5-wt
B1	2350 nM	122
B2	> 10000 nM	> 517
B3	7230 nM	374
B4	475 nM	24.6
B5	423 nM	21.9
B6	377 nM	19.5
B7	1100 nM	56.8
B8	1680 nM	86.8
B9	1520 nM	78.6
B10	822 nM	42.5
B11	1170 nM	60.5
B12	7070 nM	366
B13	6330 nM	327

The proteins below were run against Factor X (FX), P00742.
Factor X (FX), P00742, sequence (P00742 whole entry, looked up): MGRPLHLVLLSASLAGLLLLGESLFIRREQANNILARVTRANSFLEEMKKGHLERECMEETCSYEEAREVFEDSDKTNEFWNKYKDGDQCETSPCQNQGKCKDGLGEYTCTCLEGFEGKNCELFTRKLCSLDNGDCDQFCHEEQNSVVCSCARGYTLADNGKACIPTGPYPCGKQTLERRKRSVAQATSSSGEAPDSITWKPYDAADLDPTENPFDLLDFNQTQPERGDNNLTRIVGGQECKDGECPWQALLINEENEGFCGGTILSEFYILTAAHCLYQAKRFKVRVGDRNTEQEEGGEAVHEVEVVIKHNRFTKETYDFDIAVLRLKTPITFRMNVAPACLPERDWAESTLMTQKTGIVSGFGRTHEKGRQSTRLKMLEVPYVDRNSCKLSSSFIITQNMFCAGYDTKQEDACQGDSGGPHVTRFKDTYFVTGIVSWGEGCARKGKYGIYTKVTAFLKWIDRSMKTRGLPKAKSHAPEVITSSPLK

Protein	kcat of FX activation by FIXa in the Xase complex (FVIIIa, PC/PS vesicles, Ca2+)	kcat/KM for FX activation (Xase assay with FVIIIa, PC/PS vesicles, Ca2+)	kcat/KM (M^-1s^-1), FX activation by FIXa in the Xase complex	KM (nM); Catalytic activity of FIXa variants (KM)	KM	kcat/KM
B14	7 s⁻¹	–	–	–	–	–
B1	–	7.8e+07 M⁻¹ s⁻¹	–	–	–	–
B2	–	6.5e+07 M⁻¹ s⁻¹	–	–	–	–
B3	–	2e+07 M⁻¹ s⁻¹	–	–	–	–
B4	–	–	1.2e+08 M⁻¹ s⁻¹	–	–	–
B5	–	6.2e+07 M⁻¹ s⁻¹	–	–	–	–
B15	–	–	3.9e+07 M⁻¹ s⁻¹	–	–	–
B6	–	4.2e+07 M⁻¹ s⁻¹	–	–	–	–
B7	–	–	3.7e+08 M⁻¹ s⁻¹	–	–	–
B16	–	–	1.7e+08 M⁻¹ s⁻¹	–	–	–
B8	–	4.8e+07 M⁻¹ s⁻¹	–	–	–	–
B17	5.8 s⁻¹	–	–	83.9 nM	–	–
B9	–	1.9e+07 M⁻¹ s⁻¹	–	–	–	–
B18	–	–	1.9e+08 M⁻¹ s⁻¹	–	–	–
B19	–	–	1.8e+08 M⁻¹ s⁻¹	–	–	–
B20	–	–	1.3e+08 M⁻¹ s⁻¹	–	–	–
B21	5.2 s⁻¹	–	–	29.7 nM	0.0236 µM	2.4e+08 M⁻¹ s⁻¹
B22	5.4 s⁻¹	–	–	61.1 nM	–	–
B10	–	1.4e+07 M⁻¹ s⁻¹	–	–	–	–
B11	–	1e+08 M⁻¹ s⁻¹	–	–	–	–
B12	–	–	2.5e+07 M⁻¹ s⁻¹	–	–	–
B13	–	–	2.6e+08 M⁻¹ s⁻¹	–	–	–
B23	–	–	1.5e+08 M⁻¹ s⁻¹	–	–	–
B24	3.8 s⁻¹	–	–	72.4 nM	–	–

Each protein was assayed against Factor X, P00742.
Factor X, P00742, sequence (P00742 whole entry, looked up): as above

Protein	% of WT (kcat/KM)	KM (Catalytic activity of FIXa variants)	kcat/KM
B1	411%	0.0455 µM	1.9e+08 M⁻¹ s⁻¹
B2	134%	0.0537 µM	6.2e+07 M⁻¹ s⁻¹
B3	44%	0.0475 µM	2e+07 M⁻¹ s⁻¹
B4	–	0.042 µM	–
B5	135%	0.0385 µM	6.2e+07 M⁻¹ s⁻¹
B15	–	0.0457 µM	–
B6	91%	0.0455 µM	4.2e+07 M⁻¹ s⁻¹
B7	–	0.016 µM	–
B16	–	0.0385 µM	–
B8	105%	0.0592 µM	–
B9	41%	0.0511 µM	1.9e+07 M⁻¹ s⁻¹
B18	–	0.0304 µM	–
B19	–	0.048 µM	–
B20	–	0.0507 µM	–
B10	30%	0.0399 µM	1.4e+07 M⁻¹ s⁻¹
B11	228%	0.0241 µM	1e+08 M⁻¹ s⁻¹
B12	–	0.0883 µM	–
B13	–	0.0189 µM	–
B23	–	0.0447 µM	–

These proteins were tested against plasma purified human AT-III (antithrombin III), in complex with full-length unfractionated heparin (AT-III/UFH).

Protein	K0.5-mut/K0.5-wt (against Catalyst Biosciences WT FIXa)
B14	396
B25	1.4
B26	> 517
B27	279
B28	> 517
B29	1.6
B30	2.1
B17	501
B21	> 517
B22	> 517
B31	464
B24	> 517
